This note sets out measurements from patent US20210388087A1 (Chugai, published 2021).

First the molecules themselves.
B1: H183/L072 VH S30Q (antibody, name in Kabat numbering, V domains shown)
VH: QVQLVESGGGLVQPGRSLRLSCAASGFTFQNAWMHWVRQAPGKGLEWVAQIKDKGNAYAAYYAPSVKGRFTISRDDSKNSIYLQMNSLKTEDTAVYYCHYVHYASASTVLPAFGVDAWGQGTTVTVSS
VL: DIVMTQSPLSLPVTPGEPASISCQASQELVHMNRNTYLHWYQQKPGQAPRLLIYKVSNRFPGVPDRFSGSGSGTDFTLKISRVEAEDVGVYYCAQGTSVPFTFGQGTKLEIK
B2: H183/L072 VH S62P (antibody, name in Kabat numbering, V domains shown)
VH: QVQLVESGGGLVQPGRSLRLSCAASGFTFSNAWMHWVRQAPGKGLEWVAQIKDKGNAYAAYYAPPVKGRFTISRDDSKNSIYLQMNSLKTEDTAVYYCHYVHYASASTVLPAFGVDAWGQGTTVTVSS
VL: DIVMTQSPLSLPVTPGEPASISCQASQELVHMNRNTYLHWYQQKPGQAPRLLIYKVSNRFPGVPDRFSGSGSGTDFTLKISRVEAEDVGVYYCAQGTSVPFTFGQGTKLEIK
B3: H183/L072 VH S62A (antibody, name in Kabat numbering, V domains shown)
VH: QVQLVESGGGLVQPGRSLRLSCAASGFTFSNAWMHWVRQAPGKGLEWVAQIKDKGNAYAAYYAPAVKGRFTISRDDSKNSIYLQMNSLKTEDTAVYYCHYVHYASASTVLPAFGVDAWGQGTTVTVSS
VL: DIVMTQSPLSLPVTPGEPASISCQASQELVHMNRNTYLHWYQQKPGQAPRLLIYKVSNRFPGVPDRFSGSGSGTDFTLKISRVEAEDVGVYYCAQGTSVPFTFGQGTKLEIK
B4: H183/L072 VH S100aA (antibody, name in Kabat numbering, V domains shown)
VH: QVQLVESGGGLVQPGRSLRLSCAASGFTFSNAWMHWVRQAPGKGLEWVAQIKDKGNAYAAYYAPSVKGRFTISRDDSKNSIYLQMNSLKTEDTAVYYCHYVHYASAATVLPAFGVDAWGQGTTVTVSS
VL: DIVMTQSPLSLPVTPGEPASISCQASQELVHMNRNTYLHWYQQKPGQAPRLLIYKVSNRFPGVPDRFSGSGSGTDFTLKISRVEAEDVGVYYCAQGTSVPFTFGQGTKLEIK
B5: H183/L072 VH S30Y (antibody, name in Kabat numbering, V domains shown)
VH: QVQLVESGGGLVQPGRSLRLSCAASGFTFYNAWMHWVRQAPGKGLEWVAQIKDKGNAYAAYYAPSVKGRFTISRDDSKNSIYLQMNSLKTEDTAVYYCHYVHYASASTVLPAFGVDAWGQGTTVTVSS
VL: DIVMTQSPLSLPVTPGEPASISCQASQELVHMNRNTYLHWYQQKPGQAPRLLIYKVSNRFPGVPDRFSGSGSGTDFTLKISRVEAEDVGVYYCAQGTSVPFTFGQGTKLEIK
B6: H183/L072 VH S99P (antibody, name in Kabat numbering, V domains shown)
VH: QVQLVESGGGLVQPGRSLRLSCAASGFTFSNAWMHWVRQAPGKGLEWVAQIKDKGNAYAAYYAPSVKGRFTISRDDSKNSIYLQMNSLKTEDTAVYYCHYVHYAPASTVLPAFGVDAWGQGTTVTVSS
VL: DIVMTQSPLSLPVTPGEPASISCQASQELVHMNRNTYLHWYQQKPGQAPRLLIYKVSNRFPGVPDRFSGSGSGTDFTLKISRVEAEDVGVYYCAQGTSVPFTFGQGTKLEIK
B7: H183/L072 VH S99L (antibody, name in Kabat numbering, V domains shown)
VH: QVQLVESGGGLVQPGRSLRLSCAASGFTFSNAWMHWVRQAPGKGLEWVAQIKDKGNAYAAYYAPSVKGRFTISRDDSKNSIYLQMNSLKTEDTAVYYCHYVHYALASTVLPAFGVDAWGQGTTVTVSS
VL: DIVMTQSPLSLPVTPGEPASISCQASQELVHMNRNTYLHWYQQKPGQAPRLLIYKVSNRFPGVPDRFSGSGSGTDFTLKISRVEAEDVGVYYCAQGTSVPFTFGQGTKLEIK
B8: H183/L072 VH S62I (antibody, name in Kabat numbering, V domains shown)
VH: QVQLVESGGGLVQPGRSLRLSCAASGFTFSNAWMHWVRQAPGKGLEWVAQIKDKGNAYAAYYAPIVKGRFTISRDDSKNSIYLQMNSLKTEDTAVYYCHYVHYASASTVLPAFGVDAWGQGTTVTVSS
VL: DIVMTQSPLSLPVTPGEPASISCQASQELVHMNRNTYLHWYQQKPGQAPRLLIYKVSNRFPGVPDRFSGSGSGTDFTLKISRVEAEDVGVYYCAQGTSVPFTFGQGTKLEIK
B9: H183/L072 VH S100aL (antibody, name in Kabat numbering, V domains shown)
VH: QVQLVESGGGLVQPGRSLRLSCAASGFTFSNAWMHWVRQAPGKGLEWVAQIKDKGNAYAAYYAPSVKGRFTISRDDSKNSIYLQMNSLKTEDTAVYYCHYVHYASALTVLPAFGVDAWGQGTTVTVSS
VL: DIVMTQSPLSLPVTPGEPASISCQASQELVHMNRNTYLHWYQQKPGQAPRLLIYKVSNRFPGVPDRFSGSGSGTDFTLKISRVEAEDVGVYYCAQGTSVPFTFGQGTKLEIK
B10: H183/L072 VH S62M (antibody, name in Kabat numbering, V domains shown)
VH: QVQLVESGGGLVQPGRSLRLSCAASGFTFSNAWMHWVRQAPGKGLEWVAQIKDKGNAYAAYYAPMVKGRFTISRDDSKNSIYLQMNSLKTEDTAVYYCHYVHYASASTVLPAFGVDAWGQGTTVTVSS
VL: DIVMTQSPLSLPVTPGEPASISCQASQELVHMNRNTYLHWYQQKPGQAPRLLIYKVSNRFPGVPDRFSGSGSGTDFTLKISRVEAEDVGVYYCAQGTSVPFTFGQGTKLEIK
B11: H183/L072 VH S62L (antibody, name in Kabat numbering, V domains shown)
VH: QVQLVESGGGLVQPGRSLRLSCAASGFTFSNAWMHWVRQAPGKGLEWVAQIKDKGNAYAAYYAPLVKGRFTISRDDSKNSIYLQMNSLKTEDTAVYYCHYVHYASASTVLPAFGVDAWGQGTTVTVSS
VL: DIVMTQSPLSLPVTPGEPASISCQASQELVHMNRNTYLHWYQQKPGQAPRLLIYKVSNRFPGVPDRFSGSGSGTDFTLKISRVEAEDVGVYYCAQGTSVPFTFGQGTKLEIK
B12: H183/L072 VH S99A (antibody, name in Kabat numbering, V domains shown)
VH: QVQLVESGGGLVQPGRSLRLSCAASGFTFSNAWMHWVRQAPGKGLEWVAQIKDKGNAYAAYYAPSVKGRFTISRDDSKNSIYLQMNSLKTEDTAVYYCHYVHYAAASTVLPAFGVDAWGQGTTVTVSS
VL: DIVMTQSPLSLPVTPGEPASISCQASQELVHMNRNTYLHWYQQKPGQAPRLLIYKVSNRFPGVPDRFSGSGSGTDFTLKISRVEAEDVGVYYCAQGTSVPFTFGQGTKLEIK
B13: H183/L072 VH S30V (antibody, name in Kabat numbering, V domains shown)
VH: QVQLVESGGGLVQPGRSLRLSCAASGFTFVNAWMHWVRQAPGKGLEWVAQIKDKGNAYAAYYAPSVKGRFTISRDDSKNSIYLQMNSLKTEDTAVYYCHYVHYASASTVLPAFGVDAWGQGTTVTVSS
VL: DIVMTQSPLSLPVTPGEPASISCQASQELVHMNRNTYLHWYQQKPGQAPRLLIYKVSNRFPGVPDRFSGSGSGTDFTLKISRVEAEDVGVYYCAQGTSVPFTFGQGTKLEIK
B14: H183/L072 VH S100aI (antibody, name in Kabat numbering, V domains shown)
VH: QVQLVESGGGLVQPGRSLRLSCAASGFTFSNAWMHWVRQAPGKGLEWVAQIKDKGNAYAAYYAPSVKGRFTISRDDSKNSIYLQMNSLKTEDTAVYYCHYVHYASAITVLPAFGVDAWGQGTTVTVSS
VL: DIVMTQSPLSLPVTPGEPASISCQASQELVHMNRNTYLHWYQQKPGQAPRLLIYKVSNRFPGVPDRFSGSGSGTDFTLKISRVEAEDVGVYYCAQGTSVPFTFGQGTKLEIK
B15: H183/L072 VH S30R (antibody, name in Kabat numbering, V domains shown)
VH: QVQLVESGGGLVQPGRSLRLSCAASGFTFRNAWMHWVRQAPGKGLEWVAQIKDKGNAYAAYYAPSVKGRFTISRDDSKNSIYLQMNSLKTEDTAVYYCHYVHYASASTVLPAFGVDAWGQGTTVTVSS
VL: DIVMTQSPLSLPVTPGEPASISCQASQELVHMNRNTYLHWYQQKPGQAPRLLIYKVSNRFPGVPDRFSGSGSGTDFTLKISRVEAEDVGVYYCAQGTSVPFTFGQGTKLEIK
B16: H183/L072 VH S99M (antibody, name in Kabat numbering, V domains shown)
VH: QVQLVESGGGLVQPGRSLRLSCAASGFTFSNAWMHWVRQAPGKGLEWVAQIKDKGNAYAAYYAPSVKGRFTISRDDSKNSIYLQMNSLKTEDTAVYYCHYVHYAMASTVLPAFGVDAWGQGTTVTVSS
VL: DIVMTQSPLSLPVTPGEPASISCQASQELVHMNRNTYLHWYQQKPGQAPRLLIYKVSNRFPGVPDRFSGSGSGTDFTLKISRVEAEDVGVYYCAQGTSVPFTFGQGTKLEIK
B17: H183/L072 VH S30T (antibody, name in Kabat numbering, V domains shown)
VH: QVQLVESGGGLVQPGRSLRLSCAASGFTFTNAWMHWVRQAPGKGLEWVAQIKDKGNAYAAYYAPSVKGRFTISRDDSKNSIYLQMNSLKTEDTAVYYCHYVHYASASTVLPAFGVDAWGQGTTVTVSS
VL: DIVMTQSPLSLPVTPGEPASISCQASQELVHMNRNTYLHWYQQKPGQAPRLLIYKVSNRFPGVPDRFSGSGSGTDFTLKISRVEAEDVGVYYCAQGTSVPFTFGQGTKLEIK
B18: H183/L072 VH S30W (antibody, name in Kabat numbering, V domains shown)
VH: QVQLVESGGGLVQPGRSLRLSCAASGFTFWNAWMHWVRQAPGKGLEWVAQIKDKGNAYAAYYAPSVKGRFTISRDDSKNSIYLQMNSLKTEDTAVYYCHYVHYASASTVLPAFGVDAWGQGTTVTVSS
VL: DIVMTQSPLSLPVTPGEPASISCQASQELVHMNRNTYLHWYQQKPGQAPRLLIYKVSNRFPGVPDRFSGSGSGTDFTLKISRVEAEDVGVYYCAQGTSVPFTFGQGTKLEIK
B19: H183/L072 VH S99I (antibody, name in Kabat numbering, V domains shown)
VH: QVQLVESGGGLVQPGRSLRLSCAASGFTFSNAWMHWVRQAPGKGLEWVAQIKDKGNAYAAYYAPSVKGRFTISRDDSKNSIYLQMNSLKTEDTAVYYCHYVHYAIASTVLPAFGVDAWGQGTTVTVSS
VL: DIVMTQSPLSLPVTPGEPASISCQASQELVHMNRNTYLHWYQQKPGQAPRLLIYKVSNRFPGVPDRFSGSGSGTDFTLKISRVEAEDVGVYYCAQGTSVPFTFGQGTKLEIK

The assay has as its target T1, Human CD3eg linker (human).
T1 construct: Single chain: epsilon and gamma subunits of human CD3 joined by a 29-mer linker, Flag-tag at the C-terminus; also called recombinant human CD3
T1 chain: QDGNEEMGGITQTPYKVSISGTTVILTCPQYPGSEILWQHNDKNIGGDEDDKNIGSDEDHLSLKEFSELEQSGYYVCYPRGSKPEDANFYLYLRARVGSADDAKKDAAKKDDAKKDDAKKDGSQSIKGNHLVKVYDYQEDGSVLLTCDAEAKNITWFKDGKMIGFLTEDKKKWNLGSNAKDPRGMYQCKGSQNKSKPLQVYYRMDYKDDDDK
The experiment in a line: Biacore SPR, vs template H183/L072. On the technique in general: SPR reads the build-up and loss of mass on a sensor chip optically.
With B1, the “fold change of affinity” value worked out at 0.8 fold.
Under B2 stands 1.3 fold.
Regarding B3, the “fold change of affinity” value was determined as 1.4 fold.
As for B4, the figure is 0.8 fold; as for B5, 1.2 fold.
Under B6 stands 0.6 fold; under B7, 0.8 fold.
On to B8, for which the “fold change of affinity” value came out at 1.4 fold.
For B9, the “fold change of affinity” value was 1.1 fold.
For B10, the “fold change of affinity” value was 1.3 fold.
As for B11, the figure is 1.5 fold; as for B12, 1 fold.
Turning to B13, the “fold change of affinity” value amounted to 0.8 fold.
Under B14 stands 1 fold.
Under B15 stands 0.8 fold; under B16, 0.9 fold; under B17, 1.1 fold.
As for B18, the figure is 1.3 fold; as for B19, 0.7 fold.
